Measured values published in patent publication US20260152571A1.

Tests used:
[1] = target: HLA-A2 on T2 cells without added peptide (human); assay: flow cytometry, T2 cells without peptide, antibody 10 µg/mL
[2] = target: PIGQ/HLA complex on PIGQ-pulsed T2 cells (human); assay: flow cytometry, T2 cells pulsed with 25 µM PIGQ peptide, antibody 10 µg/mL
[3] = target: MED13L/HLA complex on MED13L-pulsed T2 cells (human); assay: flow cytometry, T2 cells pulsed with 25 µM MED13L peptide, antibody 10 µg/mL

| Binder | Percentage of Positive Cells (%) [1] [%] | Percentage of Positive Cells (%) [2] [%] | Percentage of Positive Cells (%) [3] [%] |
| --- | --- | --- | --- |
| 3A6-IgG1-SI (antibody, V domains shown) VH: QVQLQESGPGMVKPSETLSLTCTVSGGSISYNYWSWIRQPPGKGLEWIGYIYHSGTTKYNPSLKSRVTMSVDTSKNHFSLKLNSVTAADTAVYYCARHEDYWFFDLWGRGTLVTVSS VL: DIQMTQSPSSLSASVGDRVTITCRASQGISNYLVWFQQKPGKAPKSLIYAASILQSGVPSKFSGSGSGTDFTLTINSLQPEDFATYYCQQYNTYPFTFGPGTKVDIK | 5.77 | 5.2 | 5.72 |
| 4F10-IgG1-SI (antibody, V domains shown) VH: QVQLQESGPGLVKPSETLSLTCTVSGGSISNYYWSWIRQPPGKGLEWIGYIYYSGSTNYNPSLKSRVNISVDTSKSQVSLKLNSVIAADTAVYYCARHEDYWYFDLWGRGTLVTVSS VL: DIQLTQSPSSLSASIRDRVTITCRASQDINNYLAWFQQKPGKAPKSLIYAVSSLESGVPSKFSGSGSGTDFTLTISSLQPEDFATYFCQQYNSYPFTFGPGTKVEIK | 7.67 | 7.37 | 13.1 |
| 1G7-IgG1-SI (antibody, V domains shown) VH: QVQLVESGGGVVRPGGSLRLSCTASGFTFDDYGMTWVRQAPGKGLEWVSGINWNGGSTGYADSVKGRFTISRDNAKNSLFLQMNSLRAEDTALYYCARDQGIAVVGTHYYYYYGMDVWGQGTAVTVSS VL: EIVLTQSPATLSLSPGERATLSCRASQSFSSYLAWYQQKPGQAPRLLIFDTSNRATGIPARFSGSGSGTDFTLTISSLEPEDFAVYYCQQRSNWPLTFGGGTKVEIK | 5.32 | 5.12 | 5.12 |

The next lines start with the values.

| Percentage of Positive Cells (%) [1] [%] | Percentage of Positive Cells (%) [2] [%] | Percentage of Positive Cells (%) [3] [%] | Binder |
| --- | --- | --- | --- |
| 4.65 | 4.93 | 5.87 | P01264-IgG1-SI (antibody, V domains shown) VH: EVQLVESGGGLVKPGGSLRLSCAASGFTFSNAWMNWVRQAPGKGLEWVGRIKSKTDGGTTDYAAPVKGRFTISRHDSKNTLYLQMNSLKTEDTAVYYCATDPRIAVTGTDYYYGMDVWGQGTTVTVSS VL: DIVMTQTPSFLSASVGDRVTITCRASQDISNYLNWYQQKPGKAPKLLIYDASNLETGVPSRFSGSGSGTDFTFTISSLQPEDIATYYCQQYDNLPITFGQGTRLEIK |
| 4.66 | 5.13 | 7.68 | 7B9-IgG1-SI (antibody, V domains shown) VH: EVQLVESGGGVVQPGGSLRLSCAASGFTFDDYAMHWVRQAPGKGLEWVSLISGDDGSTYYADSMKGRITISRDNSKNSLYLQMNSLRTEDTAMYYCAKASYGSGSYLYNYGMDVWGQGTTVTVFS VL: DIQLTQSPSSLSASVGDRVTITCQASQDIINYLNWYQQKPGKAPKLLIYDTSNLETGVPSRFSGSGSGTDFAFTINSLQPEDIATYYCQQFVNLPLTFGGGTKVEIK |
